{
  "source": "patent US20170130210",
  "key": {"[1]": {"biological_target": "Pfk-I (LAA), N-terminal 6x-His-tagged Pfk-I with the native ssrA tag (LAA) appended to the C terminus (UniProt P0A796)", "sequence (P0A796 other isoform, or with tags, fused parts or gaps)": "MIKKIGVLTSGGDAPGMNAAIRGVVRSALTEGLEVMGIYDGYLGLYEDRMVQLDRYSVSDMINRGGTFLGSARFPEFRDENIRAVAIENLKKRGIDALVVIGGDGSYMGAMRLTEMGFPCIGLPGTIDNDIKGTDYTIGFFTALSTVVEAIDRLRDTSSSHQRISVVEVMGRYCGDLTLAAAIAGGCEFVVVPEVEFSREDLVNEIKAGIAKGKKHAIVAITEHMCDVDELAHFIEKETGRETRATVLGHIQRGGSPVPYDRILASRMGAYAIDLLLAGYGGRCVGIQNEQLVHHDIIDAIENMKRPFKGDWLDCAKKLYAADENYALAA"}, "[2]": {"biological_target": "Pfk-I (untagged), N-terminal 6x-His-tagged phosphofructokinase-I without C-terminal degradation tag (UniProt P0A796)", "sequence (P0A796 whole entry)": "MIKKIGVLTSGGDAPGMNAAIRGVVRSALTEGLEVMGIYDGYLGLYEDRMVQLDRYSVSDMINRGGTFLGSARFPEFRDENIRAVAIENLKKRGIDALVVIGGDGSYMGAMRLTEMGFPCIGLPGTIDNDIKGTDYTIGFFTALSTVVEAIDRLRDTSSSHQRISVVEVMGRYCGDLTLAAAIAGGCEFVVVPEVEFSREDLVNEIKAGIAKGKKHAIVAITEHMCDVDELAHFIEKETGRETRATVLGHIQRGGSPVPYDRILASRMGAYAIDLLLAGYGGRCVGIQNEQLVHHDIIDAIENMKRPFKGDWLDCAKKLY"}, "[3]": {"biological_target": "Pfk-I (DAS+4), N-terminal 6x-His-tagged Pfk-I with the modified DAS+4 tag at the C terminus (UniProt P0A796)", "sequence (P0A796 other isoform, or with tags, fused parts or gaps)": "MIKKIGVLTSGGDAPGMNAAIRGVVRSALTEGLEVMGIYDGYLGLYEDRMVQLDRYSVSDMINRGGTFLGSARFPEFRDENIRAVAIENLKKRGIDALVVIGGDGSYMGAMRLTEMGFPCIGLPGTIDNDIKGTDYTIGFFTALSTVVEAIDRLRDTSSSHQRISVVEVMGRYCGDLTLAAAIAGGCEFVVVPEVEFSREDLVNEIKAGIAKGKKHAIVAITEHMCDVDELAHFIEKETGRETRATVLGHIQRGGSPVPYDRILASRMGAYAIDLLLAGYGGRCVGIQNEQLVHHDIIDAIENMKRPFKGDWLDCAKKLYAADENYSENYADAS"}},
  "data": [
    {"substance": "ClpXP protease (0.3 µM ClpX6 and 0.9 µM ClpP14)", "values": [
      {"measurement": "in vitro degradation by ClpXP with ATP, SDS-PAGE time course", "setting": "[1]", "result": "shows almost complete disappearance by 20 minutes"},
      {"measurement": "in vitro degradation by ClpXP with ATP, SDS-PAGE time course", "setting": "[2]", "result": "does not show significant degradation during the 60 minute incubation with ClpXP"},
      {"measurement": "in vitro degradation by ClpXP with ATP, SDS-PAGE time course, no SspB", "setting": "[3]", "result": "no significant degradation was observed over the 60 minute period"}
    ]}
  ]
}
